Results: publication PMC11243334, “Synthesis and Evaluation of the First ^68Ga-Labeled C-Terminal Hydroxamate-Derived Gastrin-Releasing Peptide Receptor-Targeted Tracers for Cancer Imaging with Positron Emission Tomography” (Molecules, 2024)
Read-outs that look alike come from different tables or passages of the source.

Legend:
PC-3 tumor xenografts = experiment: PET/CT imaging in mice bearing PC-3 tumor xenografts; type: in vivo; conditions: 1 h post injection, mice
Experimental: (§1) Imaging and biodistribution studies were performed on male NOD.Cg-Rag1^tm1Mom Il2rg^tm1Wjl/SzJ (NRG) mice following previously published procedures. The experiments were conducted following the guidelines established by the Canadian Council on Animal Care and approved by Animal Ethics Committee of the University of British Columbia. The mice were sedated (2.5% isoflurane in oxygen) and injected with 5 × 10^6 PC-3 cells (100 µL; 1:1 PBS/Matrigel) subcutaneously behind the left shoulder. The tumor-bearing mice were used for PET/CT imaging and biodistribution studies when the tumor grew to 5–8 mm in diameter.
PET/CT imaging experiments were performed on a Siemens (Knoxville, TN, USA) Inveon micro PET/CT scanner. Each tumor-bearing mouse was injected with ~3–6 MBq of ^68Ga-labeled tracer through a lateral caudal tail vein under anaesthesia. At around 50 min post injection, a 10 min CT scan was obtained first for localization and attenuation correction after segmentation for reconstructing the PET image, followed by a 10 min static PET scan.

[1] = Ex vivo biodistribution in PC-3 tumor-bearing mice; conditions: male, mouse, iv, total radioactivity, mean ± SD, n = 4; for tissue uptake at 1 h: NOD.Cg-Rag1^tm1Mom Il2rg^tm1Wjl/SzJ (NRG); for tissue to tissue ratio at 1 h: NOD.Cg-Rag1tm1Mom Il2rgtm1Wjl/SzJ (NRG)
Experimental: Biodistribution studies were conducted for ^68Ga-labeled SB3, LW02075 and LW02050 in PC-3 tumor-bearing mice (n = 4).
as §1
For biodistribution studies, the mice were injected with the radiotracer (~2–4 MBq), as described above. Blocking of [^68Ga]Ga-LW02075 and [^68Ga]Ga-LW02050 was conducted by co-injection with 100 μg nonradioactive Ga-LW02075 and Ga-LW02050, respectively, through a lateral caudal tail vein under anaesthesia. At 1 h post injection, the mice were sedated and euthanized by CO2 inhalation. Blood was collected via cardiac puncture, and organs/tissues of interest were collected, weighed, and counted on a Perkin Elmer (Waltham, MA, USA) Wizard2 2480 automatic gamma counter.

physchem = conditions: n-octanol/DPBS, pH 7.4
Experimental: LogD7.4 values of [^68Ga]Ga-LW02075, [^68Ga]Ga-LW02050, and [^68Ga]Ga-SB3 were measured via the shake flask method. An aliquot of the ^68Ga-labeled tracer (~1.85 MBq) was added to a 15 mL falcon tube containing 3 mL of n-octanol and 3 mL of DPBS (pH 7.4) followed by 1 min of vortex (n = 3). After that, the mixture was centrifuged at 5000 rpm for 10 min, and samples of the n-octanol (1 mL) and buffer (1 mL) layers were collected and counted on a Perkin Elmer (Waltham, MA, USA) Wizard2 2480 automatic gamma counter. The LogD7.4 values of [^68Ga]Ga-LW02075, [^68Ga]Ga-LW02050, and [^68Ga]Ga-SB3 were calculated following the equation: LogD7.4 = log10[(counts in the n-octanol phase)/(counts in the buffer phase)].

For `CC(C)C[C@H](NC(=O)[C@H](Cc1c[nH]cn1)NC(=O)CNC(=O)[C@@H](NC(=O)[C@H](C)NC(=O)[C@H](Cc1c[nH]c2ccccc12)NC(=O)[C@H](CCC(N)=O)NC(=O)[C@@H](Cc1ccccc1)NC(=O)COCC(=O)Nc1ccc(CNC(=O)CN2CCN(CC(=O)O)CCN(CC(=O)O)CCN(CC(=O)O)CC2)cc1)C(C)C)C(=O)NO` [[^68Ga]Ga-LW02075, [^68Ga]Ga-DOTA-pABzA-DIG-D-Phe-Gln-Trp-Ala-Val-Gly-His-Leu-NHOH, metal not drawn], the “Excretion pathway in PET images” value (PC-3 tumor xenografts) was “excreted primarily through the renal pathway”, the “Pancreas in PET images” value (PC-3 tumor xenografts) was “high pancreas uptake” and the tissue uptake at 1 h ([1]; PC-3 tumor, 1 h blocked: co-injected with 100 µg nonradioactive Ga-complexed standard, read-out: PC-3 tumor uptake, blocked) was 1.83 ± 0.22 %ID/g. It also gave a tissue uptake at 1 h ([1]; PC-3 tumor, 1 h post injection, read-out: PC-3 tumor uptake) of 3.97 ± 1.71 %ID/g, a tissue uptake at 1 h ([1]; adrenal glands, 1 h blocked: co-injected with 100 µg nonradioactive Ga-complexed standard, read-out: Adrenal glands uptake, blocked) of 1.02 ± 0.59 %ID/g and a tissue uptake at 1 h ([1]; adrenal glands, 1 h post injection, read-out: Adrenal glands uptake) of 4.42 ± 2.41 %ID/g. The tissue uptake at 1 h ([1]; blood, 1 h blocked: co-injected with 100 µg nonradioactive Ga-complexed standard, read-out: Blood uptake, blocked) was 1.15 ± 0.26 %ID/g, the tissue uptake at 1 h ([1]; blood, 1 h post injection, read-out: Blood uptake) was 0.76 ± 0.41 %ID/g and the tissue uptake at 1 h ([1]; bone, 1 h blocked: co-injected with 100 µg nonradioactive Ga-complexed standard, read-out: Bone uptake, blocked) was 0.21 ± 0.07 %ID/g. The tissue uptake at 1 h ([1]; bone, 1 h post injection, read-out: Bone uptake) was 0.2 ± 0.2 %ID/g, the tissue uptake at 1 h ([1]; brain, 1 h blocked: co-injected with 100 µg nonradioactive Ga-complexed standard, read-out: Brain uptake, blocked) was 0.03 ± 0.01 %ID/g and the tissue uptake at 1 h ([1]; brain, 1 h post injection, read-out: Brain uptake) was 0.03 ± 0.01 %ID/g. For the same compound, the tissue uptake at 1 h ([1]; fat, 1 h blocked: co-injected with 100 µg nonradioactive Ga-complexed standard, read-out: Fat uptake, blocked) was 0.12 ± 0.02 %ID/g, the tissue uptake at 1 h ([1]; fat, 1 h post injection, read-out: Fat uptake) was 0.08 ± 0.05 %ID/g and the tissue uptake at 1 h ([1]; heart, 1 h blocked: co-injected with 100 µg nonradioactive Ga-complexed standard, read-out: Heart uptake, blocked) was 0.34 ± 0.04 %ID/g. It also gave a tissue uptake at 1 h ([1]; heart, 1 h post injection, read-out: Heart uptake) of 0.24 ± 0.13 %ID/g, a tissue uptake at 1 h ([1]; kidneys, 1 h blocked: co-injected with 100 µg nonradioactive Ga-complexed standard, read-out: Kidneys uptake, blocked) of 4.98 ± 1.59 %ID/g and a tissue uptake at 1 h ([1]; kidneys, 1 h post injection, read-out: Kidneys uptake) of 3.11 ± 1.18 %ID/g. The tissue uptake at 1 h ([1]; large intestine, 1 h blocked: co-injected with 100 µg nonradioactive Ga-complexed standard, read-out: Large intestine uptake, blocked) was 0.4 ± 0.17 %ID/g, the tissue uptake at 1 h ([1]; large intestine, 1 h post injection, read-out: Large intestine uptake) was 1.71 ± 0.47 %ID/g and the tissue uptake at 1 h ([1]; liver, 1 h blocked: co-injected with 100 µg nonradioactive Ga-complexed standard, read-out: Liver uptake, blocked) was 5.92 ± 1.69 %ID/g. For the same compound, the tissue uptake at 1 h ([1]; liver, 1 h post injection, read-out: Liver uptake) was 4.14 ± 1.5 %ID/g, the tissue uptake at 1 h ([1]; lungs, 1 h blocked: co-injected with 100 µg nonradioactive Ga-complexed standard, read-out: Lungs uptake, blocked) was 0.94 ± 0.17 %ID/g and the tissue uptake at 1 h ([1]; lungs, 1 h post injection, read-out: Lungs uptake) was 0.75 ± 0.41 %ID/g. The tissue uptake at 1 h ([1]; muscle, 1 h blocked: co-injected with 100 µg nonradioactive Ga-complexed standard, read-out: Muscle uptake, blocked) was 0.27 ± 0.14 %ID/g, the tissue uptake at 1 h ([1]; muscle, 1 h post injection, read-out: Muscle uptake) was 0.21 ± 0.18 %ID/g and the tissue uptake at 1 h ([1]; pancreas, 1 h blocked: co-injected with 100 µg nonradioactive Ga-complexed standard, read-out: Pancreas uptake, blocked) was 1.55 ± 0.83 %ID/g. For the same compound, the tissue uptake at 1 h ([1]; pancreas, 1 h post injection, read-out: Pancreas uptake) was 17.8 ± 5.24 %ID/g, the tissue uptake at 1 h ([1]; small intestine, 1 h blocked: co-injected with 100 µg nonradioactive Ga-complexed standard, read-out: Small intestine uptake, blocked) was 5.62 ± 1.86 %ID/g and the tissue uptake at 1 h ([1]; small intestine, 1 h post injection, read-out: Small intestine uptake) was 6.72 ± 1.94 %ID/g. The tissue uptake at 1 h ([1]; spleen, 1 h blocked: co-injected with 100 µg nonradioactive Ga-complexed standard, read-out: Spleen uptake, blocked) was 0.35 ± 0.12 %ID/g, the tissue uptake at 1 h ([1]; spleen, 1 h post injection, read-out: Spleen uptake) was 0.26 ± 0.13 %ID/g and the tissue uptake at 1 h ([1]; stomach, 1 h blocked: co-injected with 100 µg nonradioactive Ga-complexed standard, read-out: Stomach uptake, blocked) was 0.73 ± 0.29 %ID/g. It also gave a tissue uptake at 1 h ([1]; stomach, 1 h post injection, read-out: Stomach uptake) of 1.23 ± 0.22 %ID/g, a tissue uptake at 1 h ([1]; testes, 1 h blocked: co-injected with 100 µg nonradioactive Ga-complexed standard, read-out: Testes uptake, blocked) of 0.3 ± 0.06 %ID/g and a tissue uptake at 1 h ([1]; testes, 1 h post injection, read-out: Testes uptake) of 0.17 ± 0.1 %ID/g. The tissue to tissue ratio at 1 h ([1]; tumor and bone, 1 h blocked: co-injected with 100 µg nonradioactive Ga-complexed standard, read-out: Tumor/bone uptake ratio, blocked) was 9.3 ± 2.39, the tissue to tissue ratio at 1 h ([1]; tumor and bone, 1 h post injection, read-out: Tumor/bone uptake ratio) was 30.6 ± 18.9 and the tissue to tissue ratio at 1 h ([1]; tumor and kidney, 1 h blocked: co-injected with 100 µg nonradioactive Ga-complexed standard, read-out: Tumor/kidney uptake ratio, blocked) was 0.39 ± 0.09. The tissue to tissue ratio at 1 h ([1]; tumor and kidney, 1 h post injection, read-out: Tumor/kidney uptake ratio) was 1.28 ± 0.33, the tissue to tissue ratio at 1 h ([1]; tumor and muscle, 1 h blocked: co-injected with 100 µg nonradioactive Ga-complexed standard, read-out: Tumor/muscle uptake ratio, blocked) was 7.85 ± 3.13 and the tissue to tissue ratio at 1 h ([1]; tumor and muscle, 1 h post injection, read-out: Tumor/muscle uptake ratio) was 24.8 ± 9.99. The tissue to tissue ratio at 1 h ([1]; tumor and pancreas, 1 h blocked: co-injected with 100 µg nonradioactive Ga-complexed standard, read-out: Tumor/pancreas uptake ratio, blocked) was 1.46 ± 0.76, the tissue to tissue ratio at 1 h ([1]; tumor and pancreas, 1 h post injection, read-out: Tumor/pancreas uptake ratio) was 0.22 ± 0.05 and the tissue to tissue ratio at 1 h ([1]; tumor and whole blood, 1 h blocked: co-injected with 100 µg nonradioactive Ga-complexed standard, read-out: Tumor/blood uptake ratio, blocked) was 1.65 ± 0.4. For the same compound, the tissue to tissue ratio at 1 h ([1]; tumor and whole blood, 1 h post injection, read-out: Tumor/blood uptake ratio) was 5.51 ± 1.49 and the logD (physchem) was -2.09 ± 0.05.
